Biological target: bicd2_human BICD2 (UniProt Q8TD16)
Chain of UniProt Q8TD16 (Q8TD16 whole entry): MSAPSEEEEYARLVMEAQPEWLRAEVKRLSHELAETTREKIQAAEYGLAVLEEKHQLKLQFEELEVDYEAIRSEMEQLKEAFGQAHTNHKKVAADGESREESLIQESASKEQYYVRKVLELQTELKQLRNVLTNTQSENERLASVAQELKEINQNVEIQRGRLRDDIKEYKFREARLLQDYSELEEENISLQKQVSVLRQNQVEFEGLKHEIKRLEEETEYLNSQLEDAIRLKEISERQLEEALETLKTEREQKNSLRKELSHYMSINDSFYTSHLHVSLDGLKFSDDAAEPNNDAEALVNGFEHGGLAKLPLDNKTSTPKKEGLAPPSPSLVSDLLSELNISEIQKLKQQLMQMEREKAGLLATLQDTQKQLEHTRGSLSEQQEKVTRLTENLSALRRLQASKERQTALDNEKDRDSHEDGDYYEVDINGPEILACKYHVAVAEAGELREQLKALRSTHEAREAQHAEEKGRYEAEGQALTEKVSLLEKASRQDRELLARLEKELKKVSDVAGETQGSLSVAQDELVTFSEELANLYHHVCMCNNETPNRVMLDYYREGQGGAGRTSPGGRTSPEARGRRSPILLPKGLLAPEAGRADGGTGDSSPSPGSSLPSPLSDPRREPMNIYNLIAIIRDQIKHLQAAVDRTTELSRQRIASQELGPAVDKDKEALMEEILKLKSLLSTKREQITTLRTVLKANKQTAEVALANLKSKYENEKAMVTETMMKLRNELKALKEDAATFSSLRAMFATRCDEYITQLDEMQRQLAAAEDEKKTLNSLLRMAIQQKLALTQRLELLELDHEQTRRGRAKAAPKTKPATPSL

Cytoplasmic dynein 1 heavy chain 1 (Homo sapiens), Q14204 R264L
effect of a mutation on the interaction: increasing interaction strength

Cytoplasmic dynein 1 heavy chain 1 (Homo sapiens), Q14204 R598C
effect of a mutation on the interaction: increasing interaction strength
